{"source": "paper PMC9040721", "key": {"[1]": {"molecular_target": "recombinant full-length TRP120, His-tagged (rTRP120-FL) (E. chaffeensis) (UniProt Q2GI62)", "test": "SPR; Biacore T100, NTA sensor chip; His-tagged TRP120-FL, TRP120-TR or TRX (0.1 uM) immobilised; Fc-tagged Notch-1 LBR as analyte, 2-fold dilutions 800 nM to 25 nM; 25 C; 100 mM sodium phosphate pH 7.4, 400 mM NaCl, 40 uM EDTA; 1:1 Langmuir model"}, "[2]": {"molecular_target": "recombinant TRP120 tandem repeat domain, His-tagged (rTRP120-TR) (E. chaffeensis) (UniProt Q2GI62)", "test": "SPR; Biacore T100, NTA sensor chip; His-tagged TRP120-FL, TRP120-TR or TRX (0.1 uM) immobilised; Fc-tagged Notch-1 LBR as analyte, 2-fold dilutions 800 nM to 25 nM; 25 C; 100 mM sodium phosphate pH 7.4, 400 mM NaCl, 40 uM EDTA; 1:1 Langmuir model"}}, "data": [{"substance": "human rNotch-1 Fc Chimera Protein, CF (R&D Systems); Fc-tagged Notch-1 ligand-binding region (LBR) (from UniProt P46531 19-2555) (Fc fusion)", "values": [{"measurement": "Kd", "setting": "[1]", "value": 100, "unit": "nM"}, {"measurement": "Kd", "setting": "[2]", "value": 120, "unit": "nM"}]}]}
